The data set deals with the molecule itself. Description: SEC.

B1: 6xHis-VP40 (recombinant full-length EBOV VP40, dimer) (natural protein)
chain: MRRVILPTAPPEYMEAIYPVRSNSTIARGGNSNTGFLTPESVNGDTPSNPLRPIADDTIDHASHTPGSVSSAFILEAMVNVISGPKVLMKQIPIWLPLGVADQKTYSFDSTTAAIMLASYTITHFGKATNPLVRVNRLGPGIPDHPLRLLRIGNQAFLQEFVLPPVQLPQYFTFDLTALKLITQPLPAATWTDDTPTGSNGALRPGISFHPKLRPILLPNKSGKKGNSADLTSPEKIQAIMTSLQDFKIVPIDPTKNIMGIEVPETLVHKLTGKKVTSKNGQPIIPVLLPKYIGLDPVAPGDLTMVITQDCDTCHSPASLPAVIEK
Take B1: the binding result is reported as “binds”.

The values are drawn from article PMC11565396 (Journal of Lipid Research, 2024).
